Experimental findings from US20250145689A1 (CIRCULAR COMMITMENT, published 2025) are described below.

Assay [1] deals with Recombinant water soluble mouse PLVAP (extracellular domain, residues 48-438) (mouse) (UniProt Q91VC4). Nature of the assay: told in the legend of the competitive ELISA; method of the comparison not stated.
Assay [2] has the same target. Nature of the assay: Scatchard analysis; plate-coated recombinant mouse PLVAP, bound Fab-TF measured by chromogenic TF activity; mean ± SD of 6 batches.
Assay [3] shares this target. Nature of the assay: competitive ELISA on plate-coated mouse PLVAP; competitor biotinylated MECA32 mAb.
Assay [4] deals with T1, Recombinant water soluble mouse PLVAP (extracellular domain, residues 48-438) (mouse, UniProt Q91VC4 48-438).
T1 construct: The cDNA clone (Invitrogen) is not tied to NP_115774.2 in words; His-tag not reported as removed; also called mPLVAP; His-mPLVAP; not shown: His-tag of the pET-15b vector
T1 sequence: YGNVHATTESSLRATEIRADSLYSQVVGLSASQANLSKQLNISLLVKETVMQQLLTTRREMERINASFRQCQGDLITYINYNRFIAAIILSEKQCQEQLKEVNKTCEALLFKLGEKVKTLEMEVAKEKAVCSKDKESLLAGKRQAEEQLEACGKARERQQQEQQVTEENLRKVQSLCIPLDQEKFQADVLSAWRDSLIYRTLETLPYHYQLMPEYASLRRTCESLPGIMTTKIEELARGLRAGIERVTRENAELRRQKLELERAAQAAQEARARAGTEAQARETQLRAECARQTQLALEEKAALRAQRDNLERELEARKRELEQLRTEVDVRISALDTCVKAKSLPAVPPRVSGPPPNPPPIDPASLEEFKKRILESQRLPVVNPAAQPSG
Nature of the assay: ELISA on plate-coated mouse PLVAP, detected with biotinylated anti-hTF antibody. (An ELISA detects its analyte on a solid surface through an enzyme-linked reagent.)

Assay [5] deals with T2, Recombinant water soluble human PLVAP (extracellular domain, residues 51-442) (human) (UniProt Q9BX97).
T2 sequence: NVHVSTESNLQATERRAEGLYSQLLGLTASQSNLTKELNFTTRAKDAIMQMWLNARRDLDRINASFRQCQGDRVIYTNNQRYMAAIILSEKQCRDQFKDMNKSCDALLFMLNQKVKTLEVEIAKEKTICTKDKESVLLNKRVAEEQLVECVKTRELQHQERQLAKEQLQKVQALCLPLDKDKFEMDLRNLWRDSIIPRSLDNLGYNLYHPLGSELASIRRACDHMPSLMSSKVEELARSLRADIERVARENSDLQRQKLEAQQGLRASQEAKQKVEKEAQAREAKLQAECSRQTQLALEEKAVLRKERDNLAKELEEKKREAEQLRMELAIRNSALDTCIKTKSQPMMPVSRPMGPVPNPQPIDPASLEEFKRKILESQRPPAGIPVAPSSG
As to the kind of experiment: Scatchard analysis; plate-coated recombinant human PLVAP, bound Fab-TF measured by chromogenic TF activity; mean ± SD of 3 batches.

Turning to “Fab fragment of MECA32 anti-mouse PLVAP monoclonal antibody co-expressing human tissue factor”, in assay [1], the binding affinity against MECA32 mAb came out at 1 log lower. In addition, the Kd in assay [2] was 57.2 nM.
With “Rat anti-mouse PLVAP MECA32 monoclonal antibody”, the potency in competition against MECA32-Fab-TF in assay [3] was 1 log.

B1: Soluble human tissue factor without antibody (other)
chain: SGTTNTVAAYNLTWKSTNFKTILEWEPKPVNQVYTVQISTKSGDWKSKCFYTTDTECDLTDEIVKDVKQTYLARVFSYPAGNVESTGSAGEPLYENSPEFTPYLETNLGQPTIQSFEQVGTKVNVTVEDERTLVRRNNTFLSLRDVFGKDLIYTLYYWKSSSSGKKTAKTNTNEFLIDVDKGENYCFSVQAVIPSRTVNRKSTDSPVECMGQEKGEFRE
notes: also called hTF; control soluble hTF
With B1, the binding result in assay [4] is listed as “no binding”.

B2: Recombinant Fab fragment of CSRO2 anti-human PLVAP monoclonal antibody co-expressing water-soluble human tissue factor (Fab, part only; not given: Humanized CSRO2 kappa light chain, part only)
heavy: MQVQLVQSGSELKKPGASVKVSCKASGYTFTSNYINWVRQAPGQGLEWMGNIYPSDGFTNYNQKFKDRVTITVDKSTSTAYMELSSLRSEDTAVYYCTRNFDVWGQGTTVTVSSASTKGPSVFPLAPCSRSTSESTAALGCLVKDYFPEPVTVSWNSGALTSGVHTFPAVLQSSGLYSLSSVVTVPSSSLGTKTYTCNVDHKPSNTKVDKRVESKYGPPCPSCPGGGGSGGGGSGGGGSSGTTNTVAAYNLTWKSTNFKTILEWEPKPVNQVYTVQISTKSGDWKSKCFYTTDTECDLTDEIVKDVKQTYLARVFSYPAGNVESTGSAGEPLYENSPEFTPYLETNLGQPTIQSFEQVGTKVNVTVEDERTLVRRNNTFLSLRDVFGKDLIYTLYYWKSSSSGKKTAKTNTNEFLIDVDKGENYCFSVQAVIPSRTVNRKSTDSPVECMGQEKGEFRE
B2: the Kd in assay [5] is 30.7 nM.

By Kd is commonly meant the free concentration of one partner at which half of the binding sites on the other are occupied at equilibrium, for simple one-to-one binding.
